Laboratory results as given in patent US20240109974A1 (SHANDONG SIMCERE BIOPHARMACEUTICAL, published 2024).
Residue numbers refer to the chain shown, from its start.

What was measured:
[1] = molecular target: T1, Human TNFR2-His (Sino 10417-H08H) (human, UniProt P20333 23-257); experiment: ELISA, plate coated with Human TNFR2-His, detection with anti-human IgG Fc-HRP [panel A]
T1 construct: Bought protein; also called recombinant human TNFR2 protein; not shown: His tag
T1 sequence (looked up): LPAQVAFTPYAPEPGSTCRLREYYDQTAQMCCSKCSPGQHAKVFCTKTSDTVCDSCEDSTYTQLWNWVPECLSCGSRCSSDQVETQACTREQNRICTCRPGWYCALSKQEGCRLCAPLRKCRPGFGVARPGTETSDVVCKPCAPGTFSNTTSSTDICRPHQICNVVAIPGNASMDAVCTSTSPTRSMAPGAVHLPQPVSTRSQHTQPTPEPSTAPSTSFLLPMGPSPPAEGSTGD
Protocol: (§1) The test humanized antibody against TNFR2 (as described in Example 1, the antibody was comprised of variable regions linked to IgG-Fc; the WT chimeric antibody also adopted the IgG-Fc structure) was subjected to 3.33-fold gradient dilution, loaded with 100 μl/well, and incubated with shaking at room temperature for 1.5 hours. The plate was washed, and then a working solution of murine anti-human IgG Fc-HRP (diluted at 1:10000) was added, loaded with 100 μl/well, and incubated with shaking at room temperature for 1.0 hour. The plate was washed again, and then the substrate TMB of HRP was added to develop colour. A stop solution was added to stop the reaction, and then a microplate reader (MD 13) was used to read the absorbance value. The binding curve of an antibody was drawn with antibody concentration as the abscissa and corresponding OD value as the ordinate, and fitted with four parameters (GraphPad Prism9) to calculate the EC50 value. The smaller the EC50 value, the stronger the binding ability of an antibody to human/cynomolgus monkey TNFR2. The binding effect of a humanized antibody was normalized to its corresponding human-murine chimeric antibody WT (see SEQ ID NOs: 38-43 for the sequence). The higher the percentage value, the better the binding effect of the humanized antibody. […]

[2] = molecular target: T2, Cynomolgus TNFR2-His (Sino 90102-C08H) (cynomolgus monkey, UniProt A0A2K5VET2 132-366); experiment: ELISA, plate coated with Cynomolgus TNFR2-His, detection with anti-human IgG Fc-HRP [panel A]
T2 construct: Bought protein; also called cynomolgus monkey TNFR2; recombinant cynomolgus monkey TNFR2 protein; not shown: His tag
T2 sequence: T1 sequence (looked up) with S16G, S36P, P117Q, N164H, E210A, S216G, M223V
Protocol: as §1

EC50 (read off the curve) [1]: ~10 ng/mL | EC50 (read off the curve) [2]: ~10 ng/mL
B1: 001-WT (antibody, V domains shown)
VH: EVQLQESGGGLVQPGGSLNLSCAASGFAFSTYDLSWVRQTPEKRLEWVAYINNGGISTYYSDTVKGRFTISRDNAKNTLYLQMSSLKSEDTAMYYCVRGPFYGSANYFDYWGQGTTVTVSS
VL: EIVMTQSPASLSLSVGETVTITCRTSESIYSNLPWYQQKQGKSPQLLVYDATKLAEGVPSRFSGSESGTQYSLKINSLQSEDFGTYYCQHFWVTPWTFGGGTKLEIK
notes: Human-murine chimeric wild-type molecule; also called human-murine chimeric antibody WT of #001
